Experimental findings from article PMC9079618, “Evaluating Ylehd, a recombinant epoxide hydrolase from Yarrowia lipolytica as a potential biocatalyst for the resolution of benzyl glycidyl ether” (RSC Advances, 2018) are described below.

As usually defined, the Km is the substrate concentration at which the rate is half of its maximum. For orientation: kcat means the number of substrate molecules converted per active site and unit of time at saturation. By kcat/Km is commonly meant the second-order rate constant that governs catalysis at low substrate concentration.

What all share (experiment): purified protein
One data set concerns c1ccc(COC[C@H]2CO2)cc1. It is filed as biochemical, Yarrowia lipolytica. As to conditions: 50 mM Tris pH 8.0, 30 °C, 30 min, 10 μg protein.
The subject of the next data set is c1ccc(COCC2CO2)cc1. It is filed as biochemical, Yarrowia lipolytica. As to conditions: 50 mM Tris pH 8.0, 30 °C, 30 min, 2 μg protein.
The subject of another data set is c1ccc(COC[C@@H]2CO2)cc1. It is filed as biochemical, Yarrowia lipolytica. To be noted: 50 mM Tris pH 8.0, 30 °C, 30 min, 2 μg protein.
For the next data set, the system named is c1ccc(OC[C@@H]2CO2)cc1. To be noted: 50 mM Tris pH 8.0, 30 °C, 30 min, 2 μg protein.
Another data set concerns c1ccc(OCC2CO2)cc1. As to conditions: 50 mM Tris pH 8.0, 30 °C, 30 min, 2 μg protein.
Another data set has as its system c1ccc(OC[C@H]2CO2)cc1. To be noted: 50 mM Tris pH 8.0, 30 °C, 30 min, 2 μg protein.

For Ylehd (Yarrowia lipolytica), the Km was 800 ± 10 µM with c1ccc(COC[C@H]2CO2)cc1; 150 ± 2 µM in the data set with c1ccc(COCC2CO2)cc1; 270 ± 24 µM with c1ccc(COC[C@@H]2CO2)cc1; 930 ± 71 µM with c1ccc(OC[C@@H]2CO2)cc1; 600 ± 9 µM in the data set on c1ccc(OCC2CO2)cc1; 1320 ± 45 µM in the data set with c1ccc(OC[C@H]2CO2)cc1. In addition, the kcat stood at 3.45 ± 0.089 s⁻¹ in the data set on c1ccc(COC[C@H]2CO2)cc1; 5.73 ± 0.54 s⁻¹ in the data set with c1ccc(COCC2CO2)cc1; 12 ± 0.97 s⁻¹ in the data set with c1ccc(COC[C@@H]2CO2)cc1; 15.7 s⁻¹ in the data set on c1ccc(OC[C@@H]2CO2)cc1; 7.34 s⁻¹ with c1ccc(OCC2CO2)cc1; 33.8 s⁻¹ in the data set with c1ccc(OC[C@H]2CO2)cc1. Moreover, the kcat/Km in the data set with c1ccc(COC[C@H]2CO2)cc1 amounted to 4310 ± 70 M⁻¹ s⁻¹; in the data set with c1ccc(COCC2CO2)cc1 it was 38200 ± 1080 M⁻¹ s⁻¹; with c1ccc(COC[C@@H]2CO2)cc1 it was 44700 ± 870 M⁻¹ s⁻¹; in the data set on c1ccc(OC[C@@H]2CO2)cc1, 16600 M⁻¹ s⁻¹; with c1ccc(OCC2CO2)cc1, 12200 M⁻¹ s⁻¹; in the data set with c1ccc(OC[C@H]2CO2)cc1, 25500 M⁻¹ s⁻¹.
